Results: patent US20230133118A1, “COMPOSITIONS AND METHODS FOR TREATING CANCER” (Adagene AG, priority 2020, published 2023)

Columns and labels:
[1] = Clinical pharmacokinetics, serum ADG106 by ELISA, non-compartmental analysis
Experimental: Blood samples for PK analysis were collected at Cycle 1 (Day 1: pre-dose and 2, 6, 12, and 24 hours after the end of infusion; once on Days 8, 15, and 22), Day 1 pre-dose and 2 hours after the end of infusion of subsequent cycles, and at the End of Treatment. […] PK parameters were estimated using a non-compartmental method with WinNonlin.

[2] = system: CT-26 (colon carcinoma), H22 (liver cancer), EMT6 (breast cancer); assay: Single agent efficacy in syngeneic mouse tumor models (CT-26, H22, EMT6); assay type: in vivo
CD137 [3] = biological target: CD137 (Homo sapiens, UniProt Q07011); assay: Receptor occupancy calculated from drug plasma concentration and KD
CD137 (Homo sapiens, UniProt Q07011), sequence (Q07011 24-255): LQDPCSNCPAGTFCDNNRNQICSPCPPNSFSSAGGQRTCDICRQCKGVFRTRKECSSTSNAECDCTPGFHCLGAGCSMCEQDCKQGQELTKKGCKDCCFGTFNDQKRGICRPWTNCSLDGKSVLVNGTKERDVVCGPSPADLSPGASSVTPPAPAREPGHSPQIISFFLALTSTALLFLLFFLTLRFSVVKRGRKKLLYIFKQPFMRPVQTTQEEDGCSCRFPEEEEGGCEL

LLC-CD20 cells = assay: LLC-CD20 lung cancer model, ADG106 with rituximab; assay type: in vivo, C57BL/6 mice; conditions: 10 mg/kg i.p. twice a week for 3 weeks
Source text: C57BL/6 mice (n=6 per group, female, 6-8 weeks old) were transplanted subcutaneously with 5×10^5 LLC-CD20 cells, a Lewis lung cancer cell line expressing CD20. […] Tumor growth was monitored twice weekly and reported as mean tumor volume ±SEM over time.

rabbit blood = assay: In vitro hemolysis in rabbit blood; conditions: concentrations up to 2.54 mg/mL
Source text: Furthermore, with the cytoplasmic nature of the staining, no significant biological relevancy is anticipated.

4T1 breast cancer cells = assay: 4T1 breast cancer model, ADG106 with docetaxel; assay type: in vivo, BALB/c mice; conditions: 5 mg/kg; ADG106 i.p. twice a week 4 doses, Docetaxel i.v. once a week 3 doses
Source text: Tumor growth was monitored twice weekly and is reported as mean tumor volume ±SEM over time.

[4] = Clinical immunogenicity, anti-drug antibody (ADA) immunoassay; assay type: in vivo, human
Experimental: Blood samples were collected as described in the PK analysis. The anti-drug-antibody (ADA) to ADG106 in human serum was measured using a validated Affinity Capture and Elution (ACE) based immunoassay. All samples were first analyzed for ADAs in a screening assay. Study samples with results below the screening cut-off were reported as negative for ADAs. In the event of a positive result in the screening assay, samples were analyzed in the confirmatory assay. All samples confirmed positive were reported as positive.

[5] = GLP repeat-dose toxicity and safety pharmacology in cynomolgus monkeys; assay type: in vivo, cynomolgus monkey
Lewis lung cancer cells [6] = assay: Lewis lung cancer model, ADG106 with cisplatin; assay type: in vivo, C57BL/6 mice; conditions: 5 mg/kg i.p.
Source text: C57BL/6 mice (n=8 per group, female, 6-8 weeks old) were transplanted subcutaneously with 5×10^5 Lewis lung cancer cells. […] Tumor growth was monitored twice weekly and reported as mean tumor volume ±SEM over time.

Lewis lung cancer cells [7] = assay: Lewis lung cancer model, ADG106 with anti-PD-1 antibody 2E5; assay type: in vivo, C57BL/6 mice; conditions: 5 mg/kg i.p. twice a week for 2 weeks
Source text: C57BL16 mice (n=8 per group, female, 6-8 weeks old) were transplanted subcutaneously with 5×10^5 Lewis lung cancer cells. […] Tumor growth was monitored twice weekly and reported as mean tumor volume ±SEM over time.

[8] = system: L5178-S murine T cell lymphoma; assay: L5178-S murine T cell lymphoma syngeneic model; assay type: in vivo, DBA/2 mice; conditions: 20 mg/kg i.p. once every 3 days
Source text: The animals were randomized and treatment started when tumor volumes reach 50-80 mm^3, or on the day of cell inoculation (FIGS. 17A and 17C). Each group consisted of 8 tumor-bearing mice. […] Tumor growth and animal body weight were monitored every 2-3 days.

C1q, human FcγR1 = assay: C1q and FcγR1 binding, NK cell ADCC on activated human CD8+ T cells
CD137 [9] = assay: Binding to recombinant CD137 and CD137 on activated T cells; set-up: species or system human
Source text: This was expected given that CD137 is known to function as a co-stimulatory T cell receptor. […] This property might prevent the potential of dual independent activation of CD137 potentially accounting for its distinct pharmacology and toxicology profile among this class of therapeutic antibodies.

NK (CD16+/CD56+) cells = assay: TBNK flow cytometry of patient peripheral blood, NK cell percentage; assay type: in vivo, human; conditions: 32 patients analyzed
T cells = assay: T cell activation in vitro (with anti-CD3 antibody co-treatment); assay type: cell-based
Source text: To elaborate, there could be unquantified/uncertain combination effect with other MOAs, particularly with Immuno-oncology (IO) agents which could be potentially additive and/or synergistic for AEs.

Substance: ADG106: fully human agonistic anti-CD137 monoclonal IgG4 antibody; heavy chain SEQ ID NO: 10, light chain SEQ ID NO: 11
- AUC(0-t) ([1]; Chinese study, 0.1 mg/kg IV): 255 µg·h/mL
- CLz ([1]; Chinese study, 0.1 mg/kg IV): 8.88 mL/day/kg
- AUC(0-t) ([1]; Chinese study, 0.5 mg/kg IV): 1761 µg·h/mL
- CLz ([1]; Chinese study, 0.5 mg/kg IV): 6.72 mL/day/kg
- T½ ([1]; Chinese study, 0.5 mg/kg IV): 146 h
- AUC(0-t) ([1]; Chinese study, 1.5 mg/kg IV): 4162 µg·h/mL
- CLz ([1]; Chinese study, 1.5 mg/kg IV): 7.92 mL/day/kg
- T½ ([1]; Chinese study, 1.5 mg/kg IV): 180 h
- AUC(0-t) ([1]; Chinese study, 3 mg/kg IV): 10016 µg·h/mL
- CLz ([1]; Chinese study, 3 mg/kg IV): 6 mL/day/kg
- T½ ([1]; Chinese study, 3 mg/kg IV): 214 h
- AUC(0-t) ([1]; Chinese study, 5 mg/kg IV): 20966 µg·h/mL
- CLz ([1]; Chinese study, 5 mg/kg IV): 5.28 mL/day/kg
- T½ ([1]; Chinese study, 5 mg/kg IV): 173 h
- AUC(0-t) ([1]; Chinese study, 10 mg/kg IV): 39658 µg·h/mL
- CLz ([1]; Chinese study, 10 mg/kg IV): 5.52 mL/day/kg
- T½ ([1]; Chinese study, 10 mg/kg IV): 132 h
- AUC(0-t) ([1]; US study, cycle 1, 0.03 mg/kg IV, n=1): 0.626 µg·h/mL
- AUC(0-t) ([1]; US study, cycle 1, 0.1 mg/kg IV, n=1): 0.668 µg·h/mL
- AUC(0-t) ([1]; US study, cycle 1, 0.3 mg/kg IV, n=1): 1.387 µg·h/mL
- AUC(0-t) ([1]; US study, cycle 1, 1 mg/kg IV, n=3): 3.8767 µg·h/mL
- AUC(0-t) ([1]; US study, cycle 1, 3 mg/kg IV, n=3): 18.42 µg·h/mL
- mean half-life ([1]; doses ≥0.5 mg/kg): around 7 days
- single agent efficacy in CT-26, H22 and EMT6 syngeneic models ([2]; mouse, in vivo): single agent anti-tumor efficacy
- median effective dose (ED50) ([2]; syngeneic mouse liver and breast cancer models): approximately 1 mg/kg
- Receptor occupancy (CD137 [3]; 0.03 mg/kg): 58%
- Receptor occupancy (CD137 [3]; 0.1 mg/kg): 82%
- Receptor occupancy (CD137 [3]; 0.3 mg/kg): 93%
- Calculated Receptor Occupancy (CD137 [3]; 1 mg/kg): 98%
- tumor growth, single agent (LLC-CD20 cells): only weakly inhibited tumor growth
- hemolysis (rabbit blood): no ADG106-related hemolysis
- anti-tumor activity, mono-therapy (4T1 breast cancer cells): marginal anti-tumor activity
- treatment emergent or boosted ADA ([4]; Chinese patients tested so far): 5 of 23
- patients with treatment-induced anti-drug antibodies ([4]; patients tested): about 20%
- NOAEL and HNSTD ([5]; cynomolgus monkey, in vivo): > 200 mg/kg
- NOEL and NOAEL ([5]; once weekly IV infusion up to 29 days): 200 mg/kg
- anti-tumor activity, monotherapy (Lewis lung cancer cells [6]): showed anti-tumor activity
- tumor growth, single agent (Lewis lung cancer cells [7]): significantly inhibit tumor growth
- antitumor activity [8]: has antitumor activity
- C1q binding (C1q, human FcγR1): unable to bind C1 q
- binding affinity for human FcγR1 protein (C1q, human FcγR1): low binding affinity
- NK cell antibody-dependent cell-mediated cytotoxicity on activated human CD8+ T cells (C1q, human FcγR1; human whole cell assays): did not show detectable
- affinity to CD137 on activated cynomolgus monkey and human T cells (CD137 [9]): low nanomolar affinity
- patients with a decrease of the NK cell level (NK (CD16+/CD56+) cells): 6%
- patients with no change of the NK cell level (NK (CD16+/CD56+) cells): 6%
- patients with an increase of the NK cell level in peripheral blood (NK (CD16+/CD56+) cells; after first cycle): 88%
- concentration range triggering observable, not maximal T cell activation (T cells; in vitro): 1 to 3 µg/mL
- concentration range triggering robust T cell activation (T cells; with anti-CD3 antibody co-treatment): ≥ 10 µg/mL
